Measured values taken from paper PMC5919072.

Assays:
Experiment in all cases: SEC-MALS; static light scattering (MiniDAWN TREOS, three angles) inline with size exclusion on Superdex S75 10/300; 100 mM Na-phosphate pH 7.4, 400 mM NaCl; PfMDH-WT injected at 1.0 mg/ml
[1] = biological target: PfMDH-E18Q, His6-tagged (Plasmodium falciparum)
[2] = biological target: Wild-type malate dehydrogenase from Plasmodium falciparum (PfMDH-WT), His6-tagged (Plasmodium falciparum)
[3] = biological target: PfMDH-V190W, His6-tagged (Plasmodium falciparum)
[4] = biological target: PfMDH-E18W, His6-tagged (Plasmodium falciparum)

With PfMDH-E18Q, His6-tagged (enzyme) the stoichiometry N [1] was 4.

“Wild-type malate dehydrogenase from Plasmodium falciparum (PfMDH-WT), His6-tagged (enzyme)” gave a stoichiometry N [2] of 4.

With PfMDH-V190W, His6-tagged (enzyme) the stoichiometry N [3] was 2.

PfMDH-E18W, His6-tagged (enzyme) gave a stoichiometry N [4] of 2.
